Assay results published in CN112552399A (HENGYI BIOMEDICAL TECH SHANGHAI CO LTD, dated 2021).
Where a chain is given by its changes, count along the chain named.

B1: 抗体37G2 (antibody, V domains shown)
VH: QVQLVQSGAEVKKPGSSVKVSCKASGGTFSSYAITWVRQAPGQGLEWMGGIIPIFGTANFAQKFQGRVTITADESTSTAYMELSSLRSEDTAVYYCAHLGGFADPFDYWGQGTLVTVSS
VL: EIVLTQSPATLSLSPGERATLSCRASQSVSNYLAWYQQKAGQAPRVLIYDAFNRATGIPARFSGSGSGTDFTLTISSLEPEDFAVYYCQQRSNWPPRITFGQGTRLEIK
B2: 抗体31C2 (antibody, V domains shown)
VH: QVQLVQSGAEVKKPGSSVKVSCKASGGTFSSYAISWVRQAPGQGLEWMGGIIPIFGTTNYAQKFQGRVTITADESTSTAYMELNSLRSEDTAVYYCAGRSAYGDKGYYFDYWGQGTLVTVSS
VL: B1 VL with Y32F, A40P, V46L, F52S, E79Q, R97Q, I98E, R105K, L106V

Target: T1, SARS-CoV-2 S1亚基 (SARS-CoV-2, UniProt P0DTC2 16-685)
T1 construct: also called S1蛋白
Assay: ELISA, coated S1, antibody detected with HRP goat anti-human IgG

Binder | binding result
B1 | no binding (tested: 1 μg/mL)
B2 | no binding (tested: 1 μg/mL)
